Where a chain is given by its changes, count along the chain named. Blank lines part the entries; values can stand above or below the binder they belong to.
Molecular target: T1, human prostate-specific membrane antigen (PSMA), on prostate cancer LNCaP and PC-3 cells (human, UniProt Q04609 1-750)
T1 construct: also called glutamate carboxypeptidase II; GCPII
Assay: flow cytometry on LNCaP cells

T1 sequence (Q04609 whole entry): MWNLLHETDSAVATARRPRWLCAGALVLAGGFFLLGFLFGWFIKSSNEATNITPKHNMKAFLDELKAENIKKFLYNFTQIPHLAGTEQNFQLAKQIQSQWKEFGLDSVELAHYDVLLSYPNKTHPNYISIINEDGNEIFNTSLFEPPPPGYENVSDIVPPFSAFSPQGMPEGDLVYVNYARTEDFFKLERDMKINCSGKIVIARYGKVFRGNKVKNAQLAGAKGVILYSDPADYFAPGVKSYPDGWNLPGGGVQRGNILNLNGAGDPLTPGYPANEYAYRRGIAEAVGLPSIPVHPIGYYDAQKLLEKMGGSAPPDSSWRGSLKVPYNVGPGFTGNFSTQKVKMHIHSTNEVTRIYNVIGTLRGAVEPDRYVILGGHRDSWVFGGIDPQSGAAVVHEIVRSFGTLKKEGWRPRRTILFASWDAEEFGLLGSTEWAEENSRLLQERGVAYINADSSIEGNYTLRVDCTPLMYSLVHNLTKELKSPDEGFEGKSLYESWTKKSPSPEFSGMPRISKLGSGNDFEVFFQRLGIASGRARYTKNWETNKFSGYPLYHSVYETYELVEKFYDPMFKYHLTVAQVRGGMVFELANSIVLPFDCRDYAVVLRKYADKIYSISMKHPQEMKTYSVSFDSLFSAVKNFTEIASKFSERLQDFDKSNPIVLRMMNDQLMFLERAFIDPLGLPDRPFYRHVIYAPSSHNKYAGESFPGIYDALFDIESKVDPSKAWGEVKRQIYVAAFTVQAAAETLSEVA

binding result: binds
B1: Antibody No. 14 (antibody, V domains shown)
VH: VQLQESGPGLVQPSQSLSITCTVSGFSLTSYGVHWVRQSPGKGLEWLGVIWRGGSTDYNAAFMSRLSITKDNSKSQVFFKMNSLQADDTAIYYCAKKKYGNYGAMDYWGQGTTVTVSS
VL: DIVMTQSPKFLLVSAGDRVTITCKASQSVSNDVAWYQQKPGQSPKLLIYYASNRYTGVPDRFTGSGYGTDFTFTISTVQAEDLAVYFCQQDYSSPYTFGGGTKLELK
notes: Mouse hybridoma monoclonal IgG from ascites; also called PSMA-McAb clone 14

binding result: binds
B2: Antibody No. 12 (antibody, V domains shown)
VH: VQLQESGPGLVKPSQSLSLTCTVTGYSITSDYAWNWIRQFPGNKLEWMGYISYSGSTSYNPSLKSRISITRDTSKNQFFLHLNSVTTEDTATYYCARQTYYYGSSPFTYWGQGTTVTVSS
VL: DIVMTQTPSSLTVTAGEKVTMRCKSSQSLLNSGNQKSYLTWYQQKPGQPPKLLIYWASTRESGVPDRFTGSGSGTDFTLTISSVQAEDLAVYYCQNDYSYPLTFGAGTKLELK
notes: Mouse hybridoma monoclonal IgG from ascites; also called PSMA-McAb clone 12

binding result: binds
B3: Antibody No. 18 (antibody, V domains shown)
VH: VQLEESGDDLVKPGASVKLSCKASGHTFTSYWINWIKQRPGQGLEWIGRIAPGSGSTYYNEMFKGKATLTVDTSSSTAYIQLSSLSSEDSAVYFCARNLKYGNYGFAYWGQGTTVTVSS
VL: B2 VL with R22S, S37N, L112I
notes: Mouse hybridoma monoclonal IgG from ascites; also called PSMA-McAb clone 18

Reference: patent US20240002530A1 (LXZ SERVICES, published 2024)
